For orientation: EC50 means the concentration giving half of the maximal effect. High values mean a less potent agent, low ones a more potent agent. The term Kd denotes a measure of binding affinity in units of concentration. Low readings indicate tighter binding, high ones weaker binding. As a reminder, the kon is the rate constant with which the complex forms. A low value points to slower complex formation.

Changes are numbered by the printed parent chain.

T1: human CEACAM5 on cells (human, UniProt P06731 35-685)
T1 construct: tumour cell lines with endogenous CEACAM5, or B16F10 engineered to express hCEACAM5; also called CEACAM5 on MKN-45, HPAF-II, SK-CO-1, LoVo, BxPC-3, Kato-III, LS-174T, ZR-75-30; hCEACAM5-B16F10
T1 sequence: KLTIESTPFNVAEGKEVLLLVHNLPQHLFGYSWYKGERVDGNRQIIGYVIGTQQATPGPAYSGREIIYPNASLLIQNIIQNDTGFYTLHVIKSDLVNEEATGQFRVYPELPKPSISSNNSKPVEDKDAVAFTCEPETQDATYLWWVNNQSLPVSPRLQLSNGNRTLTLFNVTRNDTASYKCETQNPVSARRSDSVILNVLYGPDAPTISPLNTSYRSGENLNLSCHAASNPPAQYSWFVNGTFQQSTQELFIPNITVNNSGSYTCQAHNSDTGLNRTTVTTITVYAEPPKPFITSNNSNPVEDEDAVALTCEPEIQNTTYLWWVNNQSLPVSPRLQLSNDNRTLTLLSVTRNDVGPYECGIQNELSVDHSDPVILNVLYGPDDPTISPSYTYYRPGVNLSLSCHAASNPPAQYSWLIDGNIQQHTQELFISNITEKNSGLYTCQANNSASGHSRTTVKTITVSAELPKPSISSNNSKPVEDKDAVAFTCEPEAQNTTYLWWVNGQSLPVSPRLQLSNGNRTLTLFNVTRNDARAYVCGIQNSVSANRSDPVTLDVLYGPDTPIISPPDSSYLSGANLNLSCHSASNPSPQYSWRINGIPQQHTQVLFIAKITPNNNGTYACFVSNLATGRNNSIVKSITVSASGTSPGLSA

T2: CEACAM5 N-A1-B1-His (human, UniProt P06731 35-322, limits assumed)
T2 sequence: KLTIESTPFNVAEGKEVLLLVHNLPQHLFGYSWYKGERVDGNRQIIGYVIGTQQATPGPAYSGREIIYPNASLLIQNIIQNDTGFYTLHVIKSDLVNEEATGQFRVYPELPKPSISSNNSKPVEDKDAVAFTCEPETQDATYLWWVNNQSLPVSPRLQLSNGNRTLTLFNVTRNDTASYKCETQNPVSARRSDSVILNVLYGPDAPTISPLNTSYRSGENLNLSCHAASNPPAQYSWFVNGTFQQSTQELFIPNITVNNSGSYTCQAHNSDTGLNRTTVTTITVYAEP

T3: Human CEACAM5 V83A (human, UniProt P06731 35-685, limits assumed)
T3 sequence: T1 sequence with V49A

B1: AB0466 F3' CEACAM5 TriNKET (bispecific antibody, human IgG1, kappa)
chain: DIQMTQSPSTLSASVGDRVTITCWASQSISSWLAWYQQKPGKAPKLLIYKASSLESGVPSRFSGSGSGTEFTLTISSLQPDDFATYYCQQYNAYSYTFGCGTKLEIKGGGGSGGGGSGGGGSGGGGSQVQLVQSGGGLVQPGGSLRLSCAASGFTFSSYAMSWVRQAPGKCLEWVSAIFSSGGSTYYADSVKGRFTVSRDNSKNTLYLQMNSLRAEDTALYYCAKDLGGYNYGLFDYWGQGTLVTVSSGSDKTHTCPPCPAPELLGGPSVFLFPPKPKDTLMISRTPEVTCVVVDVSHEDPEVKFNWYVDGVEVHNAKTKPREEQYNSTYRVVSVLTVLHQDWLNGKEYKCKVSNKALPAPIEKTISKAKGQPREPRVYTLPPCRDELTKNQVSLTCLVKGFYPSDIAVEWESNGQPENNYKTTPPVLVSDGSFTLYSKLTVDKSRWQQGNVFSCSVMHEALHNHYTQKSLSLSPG
heavy: EVQLVESGGGLVKPGGSLRLSCAASGFTFSSYSMNWVRQAPGKGLEWVSSISSSSSYIYYADSVKGRFTISRDNAKNSLYLQMNSLRAEDTAVYYCARGAPIGAAAGWFDPWGQGTLVTVSSASTKGPSVFPLAPSSKSTSGGTAALGCLVKDYFPEPVTVSWNSGALTSGVHTFPAVLQSSGLYSLSSVVTVPSSSLGTQTYICNVNHKPSNTKVDKKVEPKSCDKTHTCPPCPAPELLGGPSVFLFPPKPKDTLMISRTPEVTCVVVDVSHEDPEVKFNWYVDGVEVHNAKTKPREEQYNSTYRVVSVLTVLHQDWLNGKEYKCKVSNKALPAPIEKTISKAKGQPREPQVCTLPPSRDELTENQVSLTCLVKGFYPSDIAVEWESNGQPENNYKTTPPVLDSDGSFFLYSWLTVDKSRWQQGNVFSCSVMHEALHNHYTQKSLSLSPG
light: DIQMTQSPSSVSASVGDRVTITCRASQGISSWLAWYQQKPGKAPKLLIYAASSLQSGVPSRFSGSGSGTDFTLTISSLQPEDFATYYCQQGVSFPRTFGGGTKVEIKRTVAAPSVFIFPPSDEQLKSGTASVVCLLNNFYPREAKVQWKVDNALQSGNSQESVTEQDSKDSTYSLSSTLTLSKADYEKHKVYACEVTHQGLSSPVTKSFNRGEC
B2: AB0621 F3' CEACAM5 TriNKET (bispecific antibody, human IgG1, kappa)
chain: DIVMTQSPDSLAVSLGERATINCKSSHSLLYGNFQNNYLAWYQQKPGQPPKLLIYWASTRESGVPDRFSGSGSGTDFTLTISSLQAEDVAVYYCQQYYSYPYTFGCGTKLEIKGGGGSGGGGSGGGGSGGGGSQVQLVQSGAEVKKPGASVKVSCKASGYTFTAYTIHWVRQAPGQCLEWMGYINPSSGYTEYNQKFKDRTTLTADTSISTAYMELSRLRSDDTAVYYCTREGGLLWFDYWGQGTLVTVSSGSDKTHTCPPCPAPELLGGPSVFLFPPKPKDTLMISRTPEVTCVVVDVSHEDPEVKFNWYVDGVEVHNAKTKPREEQYNSTYRVVSVLTVLHQDWLNGKEYKCKVSNKALPAPIEKTISKAKGQPREPRVYTLPPCRDELTKNQVSLTCLVKGFYPSDIAVEWESNGQPENNYKTTPPVLVSDGSFTLYSKLTVDKSRWQQGNVFSCSVMHEALHNHYTQKSLSLSPG
heavy: B1 heavy
light: B1 light
B3: AB0411 F3' CEACAM5 TriNKET (bispecific antibody, human IgG1, kappa)
chain: DIQLTQSPATLSVSPGERATLSCRASQSVSSSYLAWYQQKPGQAPRLLIYGASSRATGIPDRFSGSGSGTDFTLTISRLEPEDFAVYYCQQYNNWPLTFGCGTKVEIKGGGGSGGGGSGGGGSGGGGSQVQLVQSGGGLVQPGGSLRLSCAASGFTFTSYAMSWVRQAPGKCLEWVSAISGTGDSTFYADSVKGRFTFSRDNSKNTLYLQMNSLRAEDTAVYYCAKDLGWLQYGLFDYWGQGTLVTVSSGSDKTHTCPPCPAPELLGGPSVFLFPPKPKDTLMISRTPEVTCVVVDVSHEDPEVKFNWYVDGVEVHNAKTKPREEQYNSTYRVVSVLTVLHQDWLNGKEYKCKVSNKALPAPIEKTISKAKGQPREPRVYTLPPCRDELTKNQVSLTCLVKGFYPSDIAVEWESNGQPENNYKTTPPVLVSDGSFTLYSKLTVDKSRWQQGNVFSCSVMHEALHNHYTQKSLSLSPG
heavy: B1 heavy
light: B1 light
B4: AB0264 F3' CEACAM5 TriNKET (bispecific antibody, human IgG1, kappa)
chain: B2 chain with S210P
heavy: B1 heavy
light: B1 light

The first experiment concerns the target T1, human CEACAM5 on cells. Nature of the experiment: flow cytometry, MKN-45 cells. As to the method:
MKN-45 and HPAF-II human cancer cell lines were diluted into FACS buffer and 100,000 cells of each cell type were seeded per well in duplicate into 96-well plates for FACS staining. The cells were washed with PBS, incubated in a 1:2000 dilution of live/dead dye in PBS for 15 minutes, and then washed with FACS buffer. AB0264, AB0411, AB0466, and AB0621 were diluted into FACS buffer, and 50 μl of each diluted TriNKET was added to the cells. After incubation on ice for 30-120 minutes, the cells were washed with FACS buffer. Anti-human IgG-Fc secondary antibody was diluted into FACS buffer, and 50 μl was added per well for detection of the bound TriNKETs. The cells were incubated for 30-60 minutes on ice and then washed with FACS buffer. 50 μl of fixation buffer was added to each well and the cells were incubated for 10 minutes at room temperature. The cells were washed with FACS buffer and resuspended in FACS buffer for analysis with ThermoFisher Attune NxT, BD FACS Celesta SN #H66034400085, or BD FACS Celesta SN #H66034400160.
On the technique in general: A flow cytometer gives signals particle by particle.
On to B1, for which it took 15.2 nM to reach a half-maximal effect (EC50) and the “Max FOB” value turned out to be 111 fold over background.

Turning to B2, it took 20.6 nM to reach a half-maximal effect (EC50) and the “Max FOB” value came out at 51.3 fold over background.

As to B3, a half-maximal response (EC50) required 16.2 nM and the “Max FOB” value worked out at 120 fold over background.

As to B4, the response was half-maximal at 24.6 nM (EC50) and the “Max FOB” value is 55 fold over background.

The next experiment deals with T1, human CEACAM5 on cells. Nature of the experiment: cell-based or functional assay.
Turning to B1, the “EC50 (nM), NK lysis of HPAF-II (DELFIA)” value was 0.23 nM; the “EC50 (nM), NK lysis of LS-174T (DELFIA)” value was determined as 0.46 nM; the “EC50 (nM), NK lysis of SK-CO-1 (DELFIA)” value is 9.07 nM; the “EC50 (nM), NK lysis of ZR-75-30 (DELFIA)” value was determined as 0.8 nM. Besides, the “Max Killing (%), HPAF-II” value is 16.5%; the “Max Killing (%), LS-174T” value amounted to 20.5%; the “Max Killing (%), SK-CO-1” value was 75.1%; the “Max Killing (%), ZR-75-30” value stood at 21.4%.

Turning to B2, the “EC50 (nM), NK lysis of HPAF-II (DELFIA)” value was determined as 0.72 nM; the “EC50 (nM), NK lysis of LS-174T (DELFIA)” value was determined as 1.87 nM; the “EC50 (nM), NK lysis of SK-CO-1 (DELFIA)” value is 1.02 nM; the “EC50 (nM), NK lysis of ZR-75-30 (DELFIA)” value turned out to be 1.58 nM. The “Max Killing (%), HPAF-II” value was determined as 29.8%; the “Max Killing (%), LS-174T” value turned out to be 42.6%; the “Max Killing (%), SK-CO-1” value worked out at 80.9%; the “Max Killing (%), ZR-75-30” value amounted to 29.8%.

Take B3: the “EC50 (nM), NK lysis of LS-174T (DELFIA)” value is 0.32 nM; the “EC50 (nM), NK lysis of SK-CO-1 (DELFIA)” value came to 4.55 nM; the “EC50 (nM), NK lysis of ZR-75-30 (DELFIA)” value came out at 0.17 nM; the “Max Killing (%), HPAF-II” value was 28.3%. In addition, the “Max Killing (%), LS-174T” value came to 28.9%; the “Max Killing (%), SK-CO-1” value was 84%; the “Max Killing (%), ZR-75-30” value was determined as 25.9%.

The target of the next experiment is T2, CEACAM5 N-A1-B1-His. Nature of the experiment: SPR, Fab capt, 25C. As to the method:
If the protein domain was an Fc fusion, AB0411, AB0466, AB0264, or AB0621 were captured using an anti-human Fab antibody (Cytiva, #28958325) immobilized onto a CM5 chip. The various hCEACAM5 protein domains (N-term, A1-B1, A2, B2, A3, or B3) were titrated over the captured TriNKETs at 50 μL/min for 180 sec of association and 300 sec of dissociation. The assay was run at 25° C. in HBS-EP+ running buffer, pH 7.4. The surface of the CM5 chip was regenerated using […] glycine pH 2.1.
The molecule B1 registered a dissociation constant (Kd) of 2.1 nM and a kon of 280000 M⁻¹ s⁻¹.

Molecule B2 gave a Kd of 1.8 nM and an association rate constant (kon) of 350000 M⁻¹ s⁻¹.

As to B3, binding was characterised by a dissociation constant (Kd) of 0.95 nM and the on-rate constant (kon) came out at 300000 M⁻¹ s⁻¹.

B4 displayed a dissociation constant (Kd) of 1.1 nM and an association rate constant (kon) of 410000 M⁻¹ s⁻¹.

The target of a further experiment is T3, Human CEACAM5 V83A. Nature of the experiment: SPR, 37C, pH 7.4; reference E398. A general note: Surface plasmon resonance follows binding to a sensor surface in real time, without labels.
As for B1, the “KD/KD(Ref)” value was determined as 9.3 fold.

In the case of B2, the “KD/KD(Ref)” value stood at 2 fold.

For the molecule B3, the “KD/KD(Ref)” value came out at 4.9 fold.

The record behind these values is US20240124607A1 (Merck Sharp & Dohme, published 2024).
